{
  "source": "patent US20060058504A1",
  "about": "“Peptides capable of inducing attraction to the axonal growth and their use for treating neurodegenerative diseases” (Centre National de la Recherche Scientific (CNRS), priority 2002, published 2006)",
  "key": {"F3, axonin-1 and TAX-1 [1]": {"molecular_target": "T1, F3, axonin-1 and TAX-1 (Homo sapiens, UniProt Q02246)", "T1 sequence (Q02246 31-1012)": "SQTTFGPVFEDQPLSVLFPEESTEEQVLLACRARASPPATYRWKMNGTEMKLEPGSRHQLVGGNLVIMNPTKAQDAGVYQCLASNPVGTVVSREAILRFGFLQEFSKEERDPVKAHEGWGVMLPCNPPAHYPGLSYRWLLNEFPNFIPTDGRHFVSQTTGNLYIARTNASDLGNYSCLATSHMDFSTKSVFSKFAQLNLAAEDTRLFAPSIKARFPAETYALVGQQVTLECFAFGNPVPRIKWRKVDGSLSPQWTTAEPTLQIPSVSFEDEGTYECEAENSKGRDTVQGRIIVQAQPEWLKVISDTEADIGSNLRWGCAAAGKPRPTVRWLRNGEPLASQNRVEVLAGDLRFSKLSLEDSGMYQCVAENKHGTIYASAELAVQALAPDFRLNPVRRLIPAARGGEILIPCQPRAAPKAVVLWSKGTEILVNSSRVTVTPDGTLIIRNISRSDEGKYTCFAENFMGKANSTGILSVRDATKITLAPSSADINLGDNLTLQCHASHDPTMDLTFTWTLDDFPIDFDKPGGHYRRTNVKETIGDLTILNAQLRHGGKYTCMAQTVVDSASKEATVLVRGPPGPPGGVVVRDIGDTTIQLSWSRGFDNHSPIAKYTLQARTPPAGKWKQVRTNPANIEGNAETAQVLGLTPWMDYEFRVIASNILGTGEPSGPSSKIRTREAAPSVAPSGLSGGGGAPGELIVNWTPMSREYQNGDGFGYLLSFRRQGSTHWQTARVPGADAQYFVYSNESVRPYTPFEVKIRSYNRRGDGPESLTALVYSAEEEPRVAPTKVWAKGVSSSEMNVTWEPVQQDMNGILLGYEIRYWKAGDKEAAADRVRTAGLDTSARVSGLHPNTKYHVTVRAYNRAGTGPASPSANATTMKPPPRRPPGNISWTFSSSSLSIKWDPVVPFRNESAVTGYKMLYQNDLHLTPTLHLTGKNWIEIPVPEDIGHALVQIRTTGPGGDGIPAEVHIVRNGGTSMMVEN", "settings": "TAX-1; cited from earlier work"}, "F3, axonin-1 and TAX-1 [2]": {"system": "F3, axonin-1 and TAX-1", "settings": "F3, axonin-1 (and TAX-1 where stated); cited from earlier work"}, "[3]": {"system": "cortical axons repelled by Sema3A secreted from the ventral spinal cord", "experiment": "Co-culture of cortical slices and ventral spinal cord explants (axon guidance response to Sema3A)", "type": "cell-based, mice", "settings": "chimera 3 μg/ml in culture medium", "procedure,_shortened": "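Cortical slices from P0–P2 mice were co-cultured in a 3D plasma clot with ventral cervical spinal cord explants, alone or with L1Fc chimeras (3 μg/ml), ODQ (10^−5 M) or 7NI ([…]). After 1–2 DIV and PFA fixation, guidance was scored from −2 (repulsion) to +2 (attraction). Axon number and the three longest fibre lengths were measured in proximal and distal 600 μm regions.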"}, "L1": {"system": "L1", "settings": "mutant bound to itself; cited from earlier work"}, "NP-1": {"system": "NP-1", "experiment": "Binding of L1Fc chimeras to NP-1 expressing COS7 cells (immunofluorescence)", "procedure,_shortened": "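Mutant L1Fc chimeras from transfected COS-7 medium, purified by protein A, were cross-linked 1 hr at 37 °C with anti-human Fc (50 μg/ml), used at 10-fold higher concentration than for L1. Incubated on COS7 cells expressing myc-tagged NP-1 lacking cytoplasmic domain; after PFA fixation, bound L1Fc detected by FITC anti-Fc and NP-1 by anti-myc immunofluorescence.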"}},
  "note": "“Also recorded” adds a separate entry of the source.",
  "data": [
    {"molecule": "D598N: L1Fc chimera with missense mutation D598N in Ig domain 6 (protein, left off: a dimerising Fc or GST) IQIPEEYEGHHVMEPPVITEQSPRRLVVFPTDDISLKCEASGKPEVQFRWTRDGVHFKPKEELGVTVYQSPHSGSFTITGNNSNFAQRFQGIYRCFASNKLGTAMSHEIRLMAEGAPKWPKETVKPVEVEEGESVVLPCNPPPSAEPLRIYWMNSKILHIKQDERVTMGQNGNLYFANVLTSDNHSDYICHAHFPGTRTIIQKEPIDLRVKATNSMIDRKPRLLFPTNSSSHLVALQGQPLVLECIAEGFPTPTIKWLRPSGPMPADRVTYQNHNKTLQLLKVGEEDDGEYRCLAENSLGSARHAYYVTVEAAPYWLHKPQSHLYGPGETARLDCQVQGRPQPEVTWRINGIPVEELAKDQKYRIQRGALILSNVQPSDTMVTQCEARNRHGLLLANAYIYVVQLPAKILTADNQTYMAVQGSTAYLLCKAFGAPVPSVQWLDEDGTTVLQDERFFPYANGTLGIRDLQANDTGRYFCLAANDQNNVTIMANLKVKDATQITQGPRSTIEKKGSRVTFTCQASFDPSLQPSITWRGDGRDLQELGDSDKYFIEDGRLVIHSLDYSDQGNYSCVASTELNVVESRAQLLVVGSPGPVPRLVLSDLHLLTQSQVRVSWSPAEDHNAPIEKYDIEFEDKEMAPEKWYSLGKVPGNQTSTTLKLSPYVHYTFRVTAINKYGPGEPSPVSETVVTPEAAPEKNPVDVKGEGNETTNMVITWKPLRWMDWNAPQVQYRVQWRPQGTRGPWQEQIVSDPFLVVSNTSTFVPYEIKVQAVNSQGKGPEPQVTIGYSGEDYPQAIPELEGIEILNSSAVLVKWRPVDLAQVKGHLRGYNVTYWREGSQRKHSKRHIHKDHVVVPANTTSVILSGLRPYSSYHLEVQAFNGRGSGPASEFTFSTPEGVPGHPEALHLECQSNTSLLLRWQPPLSHNGVLTGYVLSYHPLDEGGKGQLSFNLRDPELRTHNLTDLSPHLRYRFQLQATTKEGPGEAIVREGGTMALSGISDFGNISATAGENYSVVSWVPKEGQCNFRFHILFKALGEEKGGASLSPQYVSYNQSSYTQWDLQPDTDYEIHLFKERMFRHQMAVKTNGTGRVRLPPAGFATE", "values": [
      {"measurement": "effect of mutation on heterophilic binding to TAX-1", "setting": "F3, axonin-1 and TAX-1 [1]", "value": "though not to TAX-1"},
      {"measurement": "effect of mutation on heterophilic binding", "setting": "F3, axonin-1 and TAX-1 [2]", "value": "significantly reduces"},
      {"measurement": "switching of Sema3A repulsion to attraction by L1Fc chimera", "setting": "[3]", "value": "able to reverse Sema3A repulsion to attraction; also recorded: efficiently induce switching of Sema3A repulsion to attraction; also recorded: switched Sema3A from repulsion to attraction to the same extent as wild type L1Fc"},
      {"measurement": "effect of mutation on homophilic binding", "setting": "L1", "value": "very modest effect"},
      {"measurement": "binding to NP-1 expressing cells", "setting": "NP-1", "value": "bound NP-1 expressing cells"}
    ]}
  ]
}
